The experiment deals with Hrs (rat (endogenous in rat brain cytosol)) (UniProt Q9JJ50). The experiment in a line: co-IP.
Chain of UniProt Q9JJ50 (Q9JJ50 whole entry): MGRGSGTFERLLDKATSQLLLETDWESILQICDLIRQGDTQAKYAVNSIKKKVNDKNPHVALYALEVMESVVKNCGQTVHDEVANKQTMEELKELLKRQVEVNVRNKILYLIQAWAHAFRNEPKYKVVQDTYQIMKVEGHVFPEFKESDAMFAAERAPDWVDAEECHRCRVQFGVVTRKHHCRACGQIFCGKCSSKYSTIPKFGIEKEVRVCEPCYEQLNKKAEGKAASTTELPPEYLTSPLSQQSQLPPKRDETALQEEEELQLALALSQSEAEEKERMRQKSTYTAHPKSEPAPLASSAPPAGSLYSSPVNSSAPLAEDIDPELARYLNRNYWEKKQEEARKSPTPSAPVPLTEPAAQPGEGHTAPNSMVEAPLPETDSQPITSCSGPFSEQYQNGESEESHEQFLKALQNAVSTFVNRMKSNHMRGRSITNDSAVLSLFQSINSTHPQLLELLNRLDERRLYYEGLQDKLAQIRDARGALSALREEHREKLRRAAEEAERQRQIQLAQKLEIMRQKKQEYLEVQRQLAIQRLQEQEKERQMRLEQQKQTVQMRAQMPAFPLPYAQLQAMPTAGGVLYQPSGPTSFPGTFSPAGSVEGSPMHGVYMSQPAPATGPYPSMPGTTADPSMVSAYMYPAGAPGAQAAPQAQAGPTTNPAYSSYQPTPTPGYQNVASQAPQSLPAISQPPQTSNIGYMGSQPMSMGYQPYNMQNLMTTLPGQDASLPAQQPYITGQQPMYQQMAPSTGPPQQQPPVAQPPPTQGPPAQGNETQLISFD

“signal-transducing adaptor molecule (STAM) (from UniProt Q5XHY7 1-523) (natural protein)” had a percent of STAM remaining in the cytosol after immunodepletion of Hrs of 16.5%.

These data come from article PMC3375900.
